In IntAct's records for PubMed 16865698:

B1: Mothers against decapentaplegic homolog 4 (Homo sapiens), Q13485 (parent)
chain: MDNMSITNTPTSNDACLSIVHSLMCHRQGGESETFAKRAIESLVKKLKEKKDELDSLITAITTNGAHPSKCVTIQRTLDGRLQVAGRKGFPHVIYARLWRWPDLHKNELKHVKYCQYAFDLKCDSVCVNPYHYERVVSPGIDLSGLTLQSNAPSSMMVKDEYVHDFEGQPSLSTEGHSIQTIQHPPSNRASTETYSTPALLAPSESNATSTANFPNIPVASTSQPASILGGSHSEGLLQIASGPQPGQQQNGFTGQPATYHHNSTTTWTGSRTAPYTPNLPHHQNGHLQHHPPMPPHPGHYWPVHNELAFQPPISNHPAPEYWCSIAYFEMDVQVGETFKVPSSCPIVTVDGYVDPSGGDRFCLGQLSNVHRTEAIERARLHIGKGVQLECKGEGDVWVRCLSDHAVFVQSYYLDREAGRAPGDAVHKIYPSAYIKVFDLRQCHRQMQQQAATAQAAAAAQAAAVAGNIPGPGSVGGIAPAISLSAAAGIGVDDLRRLCILRMSFVKGWGPDYPRQSIKETPCWIEIHLHRALQLLDEVLHTMPIADPQPLD

Variants of: B1
Conditions: with fbw1a_human BTRC

| effect of a mutation on the interaction | Variant |
| --- | --- |
| with no effect | P102L |

Variants of: B1
Conditions: with skp2_human SKP2, Q13309
Chain of skp2_human SKP2, Q13309 (Q13309 whole entry): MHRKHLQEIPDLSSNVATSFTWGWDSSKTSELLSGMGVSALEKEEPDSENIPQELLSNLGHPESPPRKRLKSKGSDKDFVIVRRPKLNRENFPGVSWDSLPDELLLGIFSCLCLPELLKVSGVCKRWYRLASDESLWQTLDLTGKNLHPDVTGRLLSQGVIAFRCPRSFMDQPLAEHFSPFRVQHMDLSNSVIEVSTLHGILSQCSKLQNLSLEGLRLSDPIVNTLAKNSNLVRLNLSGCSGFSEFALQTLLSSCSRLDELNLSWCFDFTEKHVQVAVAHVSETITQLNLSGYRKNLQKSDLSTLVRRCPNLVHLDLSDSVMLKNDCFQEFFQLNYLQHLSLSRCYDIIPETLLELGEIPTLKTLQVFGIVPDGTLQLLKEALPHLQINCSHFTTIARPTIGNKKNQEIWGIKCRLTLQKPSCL

| effect of a mutation on the interaction | Variant |
| --- | --- |
| disrupting interaction strength | P102L |
